Read-outs that look alike come from different tables or passages of the source.
Assays:
[1] = UV-VIS screening of binding and demetallation of Ni(II)-protoporphyrin (IX); format: biochemical; settings: 50 μM porphyrin, 24 hrs, room temperature
Description: (§1) Three nickel- and one vanadium-containing model porphyrins (Ni(II)-protoporphyrin (IX); Ni(II)-meso-tetra-(4-carboxyphenyl) porphine; Ni(II)-meso-tetra-(N-methyl-4-pyridyl) porphine tetrachloride; & VO-meso-tetra-(N-methyl-4-pyridyl) porphine tetrachloride) were chosen as test substrates for the eight representative NBPs. […] The proteins' nickel- and vanadium-binding capabilities were assayed in a single phase, aqueous environment to eliminate mass transfer limitations that occur between multiple phases and stressful non-aqueous to conditions that may change protein structure and/or inhibit function. This approach minimizes false-negative results to maximize the number of potential protein candidates that can be identified.
A shift in the wavelength of maximal absorbance, commonly referred to as the “Soret band,” indicates a change in porphyrin conformation or a protein-porphyrin interaction.
(§2) To prepare crude protein, aliquots were thawed on ice and diluted 4-fold with protein assay buffer (PAB). To isolate purified nickel-binding proteins, protein aliquots were thawed on ice and proteins of interest were purified by HIS-tag-Ni-NTA column affinity followed by size exclusion chromatography with PD-10 desalting columns. Purified protein was eluted in PAB, collected in the first 2 mL PD-10 column flow-through fraction. Relative to the initial protein concentration, samples were diluted 4-fold to parallel crude protein samples.
(§3) Amber tubes were used for all assays to protect samples from light. Crude and purified protein samples were combined with porphyrin substrates, to achieve final concentrations in Table 3, and total assay volumes were raised to 10 mL with Tris buffer. Absorbance of a 2.4 mL sample was measured in a 1 cm quartz cuvette, at room temperature, 1 nm resolution, and 0.7 sec. integration time on an Evolution201® UV-VIS spectrophotometer with Thermo INSIGHT® software. Samples were incubated for 24 hrs. at room temperature and 75 RPM and their final UV-VIS absorbance spectra was measured. An absorbance baseline was collected using Tris buffer at the beginning of each time point and 1% error was observed between technical replicates.
(§4) Porphyrin Demetallation Calculation was calculated according to the formula (EVf−EXPf)÷EVo=% specific demetallation.

[2] = cited from earlier work
[3] = UV-VIS screening of binding and demetallation of Ni(II)-meso-tetra-(4-carboxyphenyl) porphine; format: biochemical; settings: 10 μM porphyrin, 24 hrs
Description: as §1
UV-VIS spectroscopy was used for initial screening of protein activity against numerous model compounds because each model porphyrin has a characteristic UV-VIS absorbance spectrum. A shift in the wavelength of maximal absorbance, commonly referred to as the “Soret band,” indicates a change in porphyrin conformation or a protein-porphyrin interaction.
as §2
as §3, with “replicates. Crude, empty pET28b vector (EV) strain lysate protein and PAB only controls were run in parallel with experimental samples (EXP) for each porphyrin.” for “replicates.”
as §4

[4] = UV-VIS screening of binding and demetallation of VO-meso-tetra-(N-methyl-4-pyridyl) porphine tetrachloride; format: biochemical; settings: crude and purified protein, 10 μM porphyrin, 24 hrs
Description: as §1, with “This approach minimizes false-negative results to maximize the number of potential protein candidates that can be identified.” left out
(§5) UV-VIS spectroscopy was used for initial screening of protein activity against numerous model compounds because each model porphyrin has a characteristic UV-VIS absorbance spectrum. A shift in the wavelength of maximal absorbance, commonly referred to as the “Soret band,” indicates a change in porphyrin conformation or a protein-porphyrin interaction. […]
(§6) Amber tubes were used for all assays to protect samples from light. […] Absorbance of a 2.4 mL sample was measured in a 1 cm quartz cuvette, at room temperature, 1 nm resolution, and 0.7 sec. integration time on an Evolution201® UV-VIS spectrophotometer with Thermo INSIGHT® software. Samples were incubated for 24 hrs. at room temperature and 75 RPM and their final UV-VIS absorbance spectra was measured. […]

[5] = UV-VIS screening of binding and demetallation of Ni(II)-meso-tetra-(N-methyl-4-pyridyl) porphine tetrachloride; format: biochemical; settings: crude and purified protein, 10 μM porphyrin, 24 hrs
Description: as §1, with “This approach minimizes false-negative results to maximize the number of potential protein candidates that can be identified.” left out
as §5, §6

[6] = selective, repetitive treatment; cited from earlier work
[7] = site (24-His rich N-terminus; His2 and Glu2; micromolar Kd sites)

Molecule | reduction of Ni(II)-protoporphyrin (IX) Soret band (specific demetallation) ([1]; crude protein lysate) | reduction of Ni(II)-protoporphyrin (IX) Soret band (specific demetallation) ([1]; purified protein) | binding / demetallation (change of Soret band) ([3]; crude and purified protein) | other results
Hpn: nickel storage protein from H. pylori, SEQ ID NO 8; very small, histidine rich (MAHHEEQHGGHHHHHHHTHHHHYHGGEHHHHHHSSHHEEGCCSTSDSHHQEEGCCHGHHE; listed as Helicobacter pylori) | did not affect the Soret band | – | – | affinities for nickel (II) ions ([2]; short repeating motifs, reversible binding): micromolar; binding / demetallation (change of Soret band) ([3]; crude lysate only): did not affect the Soret band
E. coli HypB: nickel chaperone HypB from E. coli, SEQ ID NO 2 (protein, listed as Escherichia coli) MCTTCGCGEGNLYIEGDEHNPHSAFRSAPFAPAARPKMKITGIKAPEFTPSQTEEGDLHYGHGEAGTHAPGMSQRRMLEVEIDVLDKNNRLAERNRARFAARKQLVLNLVSSPGSGKTTLLTETLMRLKDSVPCAVIEGDQQTVNDAARIRATGTPAIQVNTGKGCHLDAQMIADAAPRLPLDDNGILFIENVGNLVCPASFDLGEKHKVAVLSVTEGEDKPLKYPHMFAAASLMLLNKVDLLPYLNFDVEKCIACAREVNPEIEIILISATSGEGMDQWLNWLETQRCA | 17% | 83% | Neither binding nor demetallation was observed | Kd of Ni-binding ([2]; N-terminal Ni binding domain): has micromolar; Kd of Ni-binding ([2]; SEQ ID NO: 12 binding sites in the C-terminal domain): subpicomolar; Ni-binding: Ni (II) ions bound ([2]; per monomer): 2 Ni (II) ions per Ni (II) per monomer
NikR: metalloregulator from H. pylori, SEQ ID NO 7 (protein, listed as Escherichia coli) MRLLHTMLRVGDLQRSIDFYTKVLGMKLLRTSENPEYKYSLAFVGYGPETEEAVIELTYNWGVDKYELGTAYGHIALSVDNAAEACEKIRQNGGNVTREAGPVKGGTTVIAFVEDPDGYKIELIEEKDAGRGLGN | remained unchanged | 56% | Neither binding to nor demetallation was observed | Kd of Ni-binding ([2]; 4 Ni (II) per complex, coordinated by His88, His99, His101 & Cys107): nanomolar Kd; Ni-binding: Ni (II) ions bound ([2]; per complex, nanomolar Kd sites): 4 Ni (II) per Ni (II) per complex; Kd of Ni-binding ([2]; up to 10 Ni (II) sites): micromolar Kd
B. japonicum HypB: nickel chaperone HypB from B. japonicum, SEQ ID NO 3 (protein, listed as Helicobacter pylori) MHEYSVVSSLIALCEEHAKKNQAHKIERVVVGIGERSAMDKSLFVSAFETFREESLVCKDAVLDIVDEKVELECKDCSHVFKPNALDYGVCEKCHSKNVVITQGNEMRLLSLEMLAE | 29% | 99% | Neither binding nor demetallation was observed | binding / demetallation (change of Soret band) [4]: Neither binding to nor demetallation of these substrates was observed; Ni-binding: Ni (II) ions bound [2, 7]: 9 Ni (II) on 24-; binding / demetallation (change of Soret band) [5]: Neither binding to nor demetallation of these substrates was observed
SlyD: nickel chaperone from E. coli, SEQ ID NO 4 (protein, listed as Escherichia coli) MKVAKDLVVSLAYQVRTEDGVLVDESPVSAPLDYLHGHGSLISGLETALEGHEVGDKFDVAVGANDAYGQYDENLVQRVPKDVFMGVDELQVGMRFLAETDQGPVPVEITAVEDDHVVVDGNHMLAGQNLKFNVEVVAIREATEEELAHGHVHGAHDHHHDHDHDGCCGGHGHDHGHEHGGEGCCGGKGNGGCGCH | 12% | no change was observed | only minimal changes to the Soret band were observed | Kd of Ni-binding ([2]; C-terminal metal-binding domain (MBD)): nanomolar Kd.
HypA: nickel chaperone from H. pylori, SEQ ID NO 1, His-tagged, expressed in E. coli (protein, listed as Bradyrhizobium japonicum, His-tag) MCTVCGCSDGKASIEHAHDHHHDHGHDHDHGHDGHHHHHHGHDQDHHHHHDHAHGDAGLLDCGANPAGQKITGMSSDRIIQVERDILGKNDRLAADNRARFRADEVLAFNLVSSPGAGKTSLLVRAVSELKDSFAIGVIEGDQQTSNDAERIRATGVPAIQVNTGKGCHLDAAMVGEAYDRLPWLNGGLLFIENVGNLVCPAAFDLGEACKIVVFSTTEGEDKPLKYPDMFAASSLMLINKIDLASVLDFDLARTIEYARRVNPKIEVLTLSARTGEGFAAFYAWIRKRMAATTPAAMTAAE | did not display Ni(II)-protoporphyrin (IX) binding or demetallation capabilities | 59% | neither binding nor demetallation was observed | Ni-binding: Ni (II) ions bound ([2]; per dimer): 2 Ni (II) ions per Ni (II) per dimer
myoglobin conjugated to activated cellulose: myoglobin conjugated to activated cellulose, reported by Smith et al. (conjugate, UniProt P68082 2-154, looked up, conjugated to activated cellulose) Myoglobin: GLSDGEWQQVLNVWGKVEADIAGHGQEVLIRLFTGHPETLEKFDKFKHLKTEAEMKASEDLKKHGTVVLTALGGILKKKGHHEAELKPLAQSHATKHKIPIKYLEFISDAIIHVLHSKHPGDFGADAQGAMTKALELFRNDIAAKYKELGFQG | – | – | – | removal of V, Ni porphyrins [6]: up to 22%
UreE: nickel chaperone from E. aerogenes, SEQ ID NO 5 (protein, Enterobacter aerogenes) MLYLTQRLEIPAAATASVTLPIDVRVKSRVKVTLNDGRDAGLLLPRGLLLRGGDVLSNEEGTEFVQVIAADEEVSVVRCDDPFMLAKACYHLGNRHVPLQIMPGELRYHHDHVLDDMLRQFGLTVTFGQLPFEPEAGAYASESHGHHHAHHDHHAHSH | remained unchanged | 17% | Neither binding nor demetallation | Ni-binding: Ni (II) ions bound ([2]; per dimer): 6 Ni (II) per Ni (II) per dimer
GloA: nickel metalloenzyme from E. coli, SEQ ID NO 6 (protein, listed as Helicobacter pylori) MDTPNKDDSIIRFSVSLQQNLLDELDNRIIKNGYSSRSELVRDMIREKLVEDNWAEDNPNDGSKIAVLVVIYDHHQRELNQRMIDIQHTSGTHVLCTTHIHMDGHNCLETIILKGNSLEIQRLQLEIGGLRGVKFAKLTKASSFEHNE | little or no binding and demetallation | little or no binding and demetallation | little or no binding and demetallation | Ni-binding: Ni (II) ions bound [2, 7]: 2 Ni (II),
